Experiments:
[1] = target: DR1GrpE: DR1 α chain 1–181 and β chain 1–190 fused C-terminally to GrpE, not biotinylated (human); test: AlphaScreen or HTRF
[2] = target: DP401: DPA1*0103/DPB1*0401 (human); test: AlphaScreen or HTRF; direct LOCI: α and biotinylated β chains refolded with peptide titration, 48 h at 18°C; streptavidin donor beads and anti-MHC-II antibody acceptor beads; half saturation (EC50) fitted to Y = Bmax*X/(KD+X) and taken as approximate KD; pH as optimised for each MHC (DR2a at pH 6)
[3] = target: DR4 (DRA*0101/DRB1*0401), biotinylated, LOCI assay (human); test: as above
[4] = target: I-E^d (mouse MHC class II) (mouse) (UniProt P01904); test: as above
[5] = target: DR2a (DRA*0101/DRB5*0101), biotinylated, direct LOCI assay at pH 6 (human); test: as above
[6] = target: DRB1*0813: DRA*0101/DRB1*0813 (human); test: as above
[7] = target: DR2a (DRA*0101/DRB5*0101) with non-biotinylated β chain, competitive LOCI assay (human); test: AlphaScreen or HTRF
[8] = target: DRB3*0301: DRA*0101/DRB3*0301 (human); test: AlphaScreen or HTRF; direct LOCI: α and biotinylated β chains refolded with peptide titration, 48 h at 18°C; streptavidin donor beads and anti-MHC-II antibody acceptor beads; half saturation (EC50) fitted to Y = Bmax*X/(KD+X) and taken as approximate KD; pH as optimised for each MHC (DR2a at pH 6)
[9] = target: DR3: DRA*0101/DRB1*0301 (human); test: as above

B1: MBP peptide … (peptide)
peptide: FLYGALLLA
**Q.** Which IC50 [1] does the source give for B1 here?
**A.** The IC50 was 3920 nM.

**Q.** And the Kd [2]?
**A.** Its Kd is 34 nM.

B2: TERT572Y peptide … (peptide)
peptide: YLFFYRKSV
**Q.** Which IC50 [1] does the source give for B2 here?
**A.** Its IC50 is 4290 nM.

**Q.** What about the Kd [3] of the same binder?
**A.** The Kd was 1590 nM.

**Q.** What about the Kd [4] of the same binder?
**A.** The Kd was 322 nM.

**Q.** And the Kd [5]?
**A.** Its Kd is 2650 nM.

**Q.** And the Kd [6]?
**A.** Its Kd is 95 nM.

B3: Murine β2m peptide … (peptide)
peptide: IQMLKNGKKIPKVEMS
**Q.** How did the IC50 [1] turn out when B3 was run?
**A.** The IC50 was 1230 nM.

**Q.** What about the IC50 [7] of the same binder?
**A.** Its IC50 is 3 nM.

**Q.** And the Kd [4]?
**A.** Its Kd is 117 nM.

**Q.** What about the Kd [5] of the same binder?
**A.** The Kd was 6 nM.

**Q.** What about the Kd [8] of the same binder?
**A.** Its Kd is 70 nM.

**Q.** What about the Kd [9] of the same binder?
**A.** Its Kd is 21 nM.

**Q.** What about the Kd [6] of the same binder?
**A.** The Kd was 73 nM.

Reference: publication PMC2690590, “Functional recombinant MHC class II molecules and high-throughput peptide-binding assays” (Immunome Research, 2009)
